The data set can be described thus: background-corrected fluorescence of 3'-dye-labeled ssDNA relative to brightest sequence (3'-GCGCG) (fraction); higher = brighter dye fluorescence (less quenching). In a few lines: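 Arrays of single-stranded DNA, with a 3' Cy3 or Cy5 dye beside each of 1024 permuted pentamers, were built on glass slides through light-directed phosphoramidite synthesis. They were washed for 2 h at r.t. in acetonitrile and scanned at 532 or 635 nm, once before and once after overnight ethylenediamine/ethanol deprotection. Fluorescence is reported after subtracting unlabeled-oligo background and normalizing to the brightest sequence. Averages cover 10 features per array and at least 3 syntheses.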

± gives the standard error.

Turning to “TTTTTTGCTCATCATCATGCTTTTTTTTTTTTTTTAGGGA”, the background-corrected fluorescence (dye: Cy3 (3' terminal)) was found to be 0.707 ± 0.036 and the background-corrected fluorescence (dye: Cy5 (3' terminal)) amounted to 0.642 ± 0.037.
As to “TTTTTTGCTCATCATGAGCATTTTTTTTTTTTTTTAGGCT [TCGGA]”, the background-corrected fluorescence worked out at 0.596 ± 0.014 (dye: Cy3 (3' terminal)) and 0.435 ± 0.028 (dye: Cy5 (3' terminal)).
With “TTTTTTGCTCATCATGATCATTTTTTTTTTTTTTTAGGCG [GCGGA]”, the background-corrected fluorescence came out at 0.633 ± 0.026 (dye: Cy3 (3' terminal)) and 0.521 ± 0.049 (dye: Cy5 (3' terminal)).
Take “TTTTTTGCTCATCATGATGATTTTTTTTTTTTTTTAGGCC [CCGGA]”: the background-corrected fluorescence was 0.479 ± 0.037 (dye: Cy3 (3' terminal)) and 0.368 ± 0.064 (dye: Cy5 (3' terminal)).
Take “TTTTTTGCTCATCATGATGCTTTTTTTTTTTTTTTAGGCA [ACGGA]”: the background-corrected fluorescence is, setting by setting: (dye: Cy3 (3' terminal)) 0.584 ± 0.0074; (dye: Cy5 (3' terminal)) 0.463 ± 0.017.
“TTTTTTGCTCATCATGCGCATTTTTTTTTTTTTTTAGGAT”: the background-corrected fluorescence was found to be 0.637 ± 0.019 (dye: Cy3 (3' terminal)) and 0.463 ± 0.028 (dye: Cy5 (3' terminal)).
As to “TTTTTTGCTCATCATGCTCATTTTTTTTTTTTTTTAGGAG [GAGGA]”, the background-corrected fluorescence (dye: Cy3 (3' terminal)) was 0.597 ± 0.023 and the background-corrected fluorescence (dye: Cy5 (3' terminal)) came to 0.507 ± 0.034.
With “TTTTTTGCTCATCATGCTGATTTTTTTTTTTTTTTAGGAC [CAGGA]”, the background-corrected fluorescence is, setting by setting: (dye: Cy3 (3' terminal)) 0.479 ± 0.014; (dye: Cy5 (3' terminal)) 0.383 ± 0.033.
For “TTTTTTGCTCATCATGCTGCTTTTTTTTTTTTTTTAGGAA [AAGGA]”, the background-corrected fluorescence by setting is: (dye: Cy3 (3' terminal)) 0.648 ± 0.0081; (dye: Cy5 (3' terminal)) 0.559 ± 0.021.
The like results for “TTTTTTGCTCATGAGCAGCATTTTTTTTTTTTTTTAGCTT [TTCGA]” were, in that order, 0.551 ± 0.021 and 0.419 ± 0.041.
Consider “TTTTTTGCTCATGAGCATCATTTTTTTTTTTTTTTAGCTG [GTCGA]”, for which the background-corrected fluorescence runs as follows: (dye: Cy3 (3' terminal)) 0.524 ± 0.005; (dye: Cy5 (3' terminal)) 0.424 ± 0.058.
On to “TTTTTTGCTCATGAGCATGATTTTTTTTTTTTTTTAGCTC [CTCGA]”, for which the background-corrected fluorescence is, setting by setting: (dye: Cy3 (3' terminal)) 0.408 ± 0.042; (dye: Cy5 (3' terminal)) 0.323 ± 0.024.
Turning to “TTTTTTGCTCATGAGCATGCTTTTTTTTTTTTTTTAGCTA [ATCGA]”, the background-corrected fluorescence runs as follows: (dye: Cy3 (3' terminal)) 0.512 ± 0.0099; (dye: Cy5 (3' terminal)) 0.4 ± 0.019.
On to “TTTTTTGCTCATGATCAGCATTTTTTTTTTTTTTTAGCGT [TGCGA]”, for which the background-corrected fluorescence is, setting by setting: (dye: Cy3 (3' terminal)) 0.679 ± 0.022; (dye: Cy5 (3' terminal)) 0.52 ± 0.023.
“TTTTTTGCTCATGATCATCATTTTTTTTTTTTTTTAGCGG [GGCGA]”: the background-corrected fluorescence reads like this: (dye: Cy3 (3' terminal)) 0.716 ± 0.013; (dye: Cy5 (3' terminal)) 0.577 ± 0.042.
The like results for “TTTTTTGCTCATGATCATGATTTTTTTTTTTTTTTAGCGC [CGCGA]” were, in that order, 0.65 ± 0.023 and 0.523 ± 0.038.
On to “TTTTTTGCTCATGATCATGCTTTTTTTTTTTTTTTAGCGA”, for which the background-corrected fluorescence was 0.708 ± 0.033 (dye: Cy3 (3' terminal)) and 0.58 ± 0.052 (dye: Cy5 (3' terminal)).
On the same counts, the results for “TTTTTTGCTCATGATGAGCATTTTTTTTTTTTTTTAGCCT [TCCGA]” are 0.481 ± 0.039 and 0.394 ± 0.083.
For “TTTTTTGCTCATGATGATCATTTTTTTTTTTTTTTAGCCG [GCCGA]”, the background-corrected fluorescence came to 0.554 ± 0.018 (dye: Cy3 (3' terminal)) and 0.437 ± 0.029 (dye: Cy5 (3' terminal)).
Take “TTTTTTGCTCATGATGATGATTTTTTTTTTTTTTTAGCCC [CCCGA]”: the background-corrected fluorescence reads like this: (dye: Cy3 (3' terminal)) 0.393 ± 0.022; (dye: Cy5 (3' terminal)) 0.304 ± 0.018.
Take “TTTTTTGCTCATGATGATGCTTTTTTTTTTTTTTTAGCCA [ACCGA]”: the background-corrected fluorescence was found to be 0.5 ± 0.028 (dye: Cy3 (3' terminal)) and 0.394 ± 0.023 (dye: Cy5 (3' terminal)).
As to “TTTTTTGCTCATGATGCGCATTTTTTTTTTTTTTTAGCAT [TACGA]”, the background-corrected fluorescence reads like this: (dye: Cy3 (3' terminal)) 0.519 ± 0.039; (dye: Cy5 (3' terminal)) 0.405 ± 0.032.
On the same counts, the results for “TTTTTTGCTCATGATGCTCATTTTTTTTTTTTTTTAGCAG [GACGA]” are 0.574 ± 0.018 and 0.42 ± 0.02.
The like results for “TTTTTTGCTCATGATGCTGATTTTTTTTTTTTTTTAGCAC [CACGA]” were, in that order, 0.415 ± 0.019 and 0.328 ± 0.012.
For the sequence “TTTTTTGCTCATGATGCTGCTTTTTTTTTTTTTTTAGCAA [AACGA]”, the background-corrected fluorescence is 0.579 ± 0.03 (dye: Cy3 (3' terminal)) and 0.427 ± 0.03 (dye: Cy5 (3' terminal)).
The like results for “TTTTTTGCTCATGCGCAGCATTTTTTTTTTTTTTTAGATT” were, in that order, 0.565 ± 0.035 and 0.41 ± 0.018.
As for “TTTTTTGCTCATGCGCATCATTTTTTTTTTTTTTTAGATG [GTAGA]”, the background-corrected fluorescence is 0.552 ± 0.027 (dye: Cy3 (3' terminal)) and 0.439 ± 0.018 (dye: Cy5 (3' terminal)).
On the same counts, the results for “TTTTTTGCTCATGCGCATGATTTTTTTTTTTTTTTAGATC [CTAGA]” are 0.464 ± 0.013 and 0.359 ± 0.023.
Consider “TTTTTTGCTCATGCGCATGCTTTTTTTTTTTTTTTAGATA [ATAGA]”, for which the background-corrected fluorescence by setting is: (dye: Cy3 (3' terminal)) 0.582 ± 0.025; (dye: Cy5 (3' terminal)) 0.434 ± 0.019.

The values are drawn from the supplement of paper PMC9428881.
